# Biological target: Rab11 (1–173, Q70L) with 6 × His, bound to GTP-γ-S (UniProt P62491)
# Experiment: SPR
substance,measurement,value
"p14^1–69 protein (p14 FAST protein of reptilian reovirus, residues 1-69) reconstituted into bicelles (domain or fragment)",Kd,2130 nM

# From article PMC12079263
